Variants at the floor of the assay were thinned out.
B1: TPR 5TU (parent)
chain: GGAUCUUCUCGAUCUAACAAAAAAGACAAAUCUGCCACAAAGCUUGAGAGCAUCUUCGGAUGCAGAGGCGGCAGCCUUCGGUGGCGCGAUAGCGCCAACGUUCUCAACUAUGACACGCAAAACGCGUGCUCCGUUGAAUGGAGUUUAUCAUG

Variants of: B1
Experiment: polymerase ribozyme fitness, log enrichment relative to wild type (log ratio); higher = more active; in vitro selection for triplet polymerase activity
Summary of the method: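 Input and output libraries were sequenced on Illumina after a single in vitro selection round, run in triplicate on PCR-built, transcribed mutant libraries of each subunit of a heterodimeric triplet polymerase ribozyme. Selection annealed libraries to a biotinylated primer, the partner subunit and triplets, incubated them frozen at −7 °C, then gel-excised extended constructs for streptavidin-bead capture and RT-PCR. Genotypes with ≥10 input reads and ≥1 read per output were kept. Fitness is the logarithm, taken in base 2, of genotype enrichment divided by wild-type enrichment, using inverse-variance-weighted replicate averages.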

Polymerase ribozyme fitness (log ratio), -3.79:
C8A G50U

Polymerase ribozyme fitness (log ratio), -2.74:
U9C C76U

Polymerase ribozyme fitness (log ratio), -3.09:
C8U U56A

Polymerase ribozyme fitness (log ratio), -3.93:
U9A A91C C116G U148A

Polymerase ribozyme fitness (log ratio), -3.64:
C8G C93U

Polymerase ribozyme fitness (log ratio), -3.87:
U9A C93A

Polymerase ribozyme fitness (log ratio), -4.19:
C8A U31G C36U C114U A142C

Polymerase ribozyme fitness (log ratio), -2.63:
C8U C96G

Polymerase ribozyme fitness (log ratio), -2.91:
C8G U55A

Polymerase ribozyme fitness (log ratio), -3.35:
C8U G92U

Polymerase ribozyme fitness (log ratio), -2.99:
C8U A12G A52G A98U
C8U G59C

Polymerase ribozyme fitness (log ratio), -3.27:
C8U G59A C116U

Polymerase ribozyme fitness (log ratio), -3.21:
C8U U31G

Polymerase ribozyme fitness (log ratio), -3.73:
C8U A47G

Polymerase ribozyme fitness (log ratio), -2.7:
U9A
C8U G58C

Polymerase ribozyme fitness (log ratio), -3.71:
C8G U13G C116G

Polymerase ribozyme fitness (log ratio), -1.27:
U9C

Polymerase ribozyme fitness (log ratio), -4.18:
C8U A12G A28U G74A G81A C99U

Polymerase ribozyme fitness (log ratio), -2.69:
C8U C96U

Polymerase ribozyme fitness (log ratio), -3.97:
C8U A73U

Polymerase ribozyme fitness (log ratio), -4.04:
C8U A16G A21G A40U

Polymerase ribozyme fitness (log ratio), -4.1:
U9C A73U

Polymerase ribozyme fitness (log ratio), ≤ -4.2:
C8U A28U G62U A113C
C8U G88U G92A
C8A C32G A40U A52U A73U A91U
U9C C57G G140C
C8U A17G G84U G133C
U9A A73G
U9C U53A G58U A60C A66C A147C
C8G G84U G100U C132U U144A
C8U A29G A52G U56A U127G
C8G U44A A52C C75A A91G U148G
U9A A20C A23U U31G A47C G50U G58A C85U A91C
U9A C18G A52G G58C A138G
U9C A30G A66C G84A A150C
C8U A37C C93A U151G
C8A C43U G46A A73G C85U U134G U151A
C8G C10U C51A G80C C95A U102G G124U A137C
U9C A12C C57U C63U G74C A119G U146G
C8G G84U
C8A C14U A37G C54U C85U
U9A A17C A20C C54U U55G G58A G67A C116G G143A
C8U A21C G25U A97U
C8U A52G C85A A119U U130G
C8U A22U C27U G70A C85A A89U G92U
C8A U55A G84U C85A
C8G A20C G67C G68C A113U
C8A C14U A21C U53A G83A A150C
U9A A39U G48A G84U C99A G117U
C8G G83A A97U U127A
U9C A17U A89G A122G
C8U U9G G70A C76A C87G A89C
C8U A24C C36U G48A C95G C105U U145A
U9A A20C A26G A28U G67U U82C U90G G124A U134C U146A
C8G A52C U55C G65A G83U C105U G143U
C8U U9G C18G U33G U55A C95U C105U G112U C132U A147U
C8A C18U A20G U45A G59C G62A C76U C114G
C8G U55G C72U G84U G136A
U9A C36A C72G G92A C129A A137U
U9C C14G
U9C C14U C76A C87G
U9A U55G U78G G143C
C8G C125U G141C
U9A U15C C35U G71A C72U U77G C87A A119U G124C
U9A A23C U31G A73U C93G A106G G117A G133A A150G
C8U A16C U53A C54A G71C G141C U148C C149U
U9C A26G U55A A122U
C8U U44G U55A C79U G88A A110U
U9A A41U A52C G62U C87G A89G C95U C116A A142C U146A A150C
C8G U82A C85A A91U C96U G117C
U9A C96U A110C
U9C A66G C76G G92U C114A
U9A C14A A23U A30C C36A C95U A110U
U9C C54U C85A G136C
C8A U13G A21G A28G G68U G81A C118G G143U
C8G A29C U55G A60G C85G A89G G140C
U9A A12G C14U A23U A40C C76G G86C U90C C118A C131G
C8G U53C G58C C79U A89G U139C
U9A A17U G58A U151A
C8A G11A C63U G83C U130G G152C
C8A G11A G50C U82A G83C
U9C C10G C36G U55A G84A G126A
U9A A41G A91U C95A C96G U102G G133A U135C
U9C C38U A52U C75G G92U G94A G136U U144G
C8G A30G C35U G65U G94U U135C U144G
C8U C38G G92U C95U C99U U104A U145G
U9C U56A C76A C108G G143U A150G
C8U A22C A26C G50C C85A C116U C118A
U9A U15A G48C C51G G84A
U9C U15G C54A G67C G84A G117A
C8G C14A A30C C69U C76G A98U U144G
C8G G71A G74A C79U C87A C116A
U9C A17U A30G G42C C51A C87U
C8U A40C A41G G50A U56A C93A
C8U A30U U44A A97G U101G A113G C132U C149G A150U
C8G A29C G42C
C8G A29C G34C U78G G86U A97C C149U
U9A G59A A60C C93U
C8G A29G A60U U77A C93A C123U
U9A A23C C35G C75U G92U C95G U127A
C8U C27A A29U A66U G67A A120U U134A
U9C A47C A60G G84C C93A C105G A113U U127C
C8A G25U U31A U82C C118G U145C
C8G A47C C54G
U9A C32G C54A G86C U109G G136A
C8U G25C U82A C87A
C8G A12C A23G A52U C57U C93A C95G A110U
U9A A24G C54A C87G
U9A A22G G34A A106G C116U A120U
C8G A23U A30U G42C G83C A97U
U9C A49G A106G C116U G136A A137C G143A U144C U148G
C8G C54U G59C G81U C96A U144C
C8A C57U G67C C95A A97G U151A
C8G A21C G94C C99A
U9C A23U A24G C38G A89G A91U
U9A G128C U139A
C8G A23U C27G A40G A49C C87U U104G U134G G140A
C8A C27U U44G A49C C72G C79A G92A G143U
C8A G48C U55A
U9C A12U C27G G48A G74A G88A
U9A C63U C69U C76U C93A A113U G136C
U9A A16G U45A C57A C75G G83U G92A
U9A G25U C36U G50C G86A
U9C A16U A21G G70C G92U G143U U145G
C8U C43U G48C U55A G92C
C8U G81A G88A
C8U C27G A40G U78G C85G A98C A150G
C8A C10U U33A G81U C87A C103G A147C
C8U A12G A28C C38U C57G C95U
C8G G42C G50C A91C C93A
C8A G11C A29U C95G
U9A U31G U53G G88A G126U A150C
U9A U15A C93U C103G
C8U A16U A49C A73C C85U C108G
U9A C76U C85U C132U G133C
C8G C10A A30C U56A C57G C87U U102G G143C
C8G C35U A40U C95U C149A
U9C A28U A30C U61A G88A A91U G92A A119U
C8A C18U C35G C57U C76A G92U G117C U134A
U9C C35G A39U C103G
C8U C38U A49G C79G C93A C103G G136U
C8U A28U U53A G67A C69U G88C A89U A98G A138C
C8G C79A A91U A107C G124C U144C
U9C A28C C36A C87U C116U
C8G A24U A29G C54G C57U G94A A98G U135G
U9A A23C C32U C72G G80A G81A
U9A C57G G84U
U9C U44A G46C A47G C85U A121G
C8A U9C A30U C87U C95U C129A
U9C U15G C93A
U9A G86A C93U G141C
C8G G11A A17U G71U G88U U127C U135G U148C A150C
C8G A28U C87U C105U
C8G G11A A52G A89U C93G
U9C A22C C54U C57U G100U C105G
U9A C32A U55G G88U U109A
C8U A21G A41C G50A G65C G88A
C8U U33A A37C G50A A60U C72A G86A U90A A138G U151G
U9C A22G A23C G25C G83C

Polymerase ribozyme fitness (log ratio), -3.5:
C8A U53A G81C C85G C108U A138G A147G A150U G152U

Polymerase ribozyme fitness (log ratio), -4.13:
U9A A47C

Polymerase ribozyme fitness (log ratio), -1.08:
C8U U13C A22G C93U G126A

Polymerase ribozyme fitness (log ratio), -2.82:
U9G

Polymerase ribozyme fitness (log ratio), -3.75:
C8U A17C A28G C35U C76A C96U U144G

Polymerase ribozyme fitness (log ratio), -3.95:
C8A U15G C18U G58C C96G
